Measurements reported in patent publication US20210238260A1 (published 2021).

B1: FIXa-R318Y/R338E/T343R/E410N (enzyme)
chain 1: YNSGKLEEFVQGNLERECMEEKCSFEEAREVFENTERTTEFWKQYVDGDQCESNPCLNGGSCKDDINSYECWCPFGFEGKNCELDVTCNIKNGRCEQFCKNSADNKVVCSCTEGYRLAENQKSCEPAVPFPCGRVSVSQTSKLTR
chain 2: VVGGEDAKPGQFPWQVVLNGKVDAFCGGSIVNEKWIVTAAHCVETGVKITVVAGEHNIEETEHTEQKRNVIRIIPHHNYNAAINKYNHDIALLELDEPLVLNSYVTPICIADKEYTNIFLKFGSGYVSGWGRVFHKGYSALVLQYLRVPLVDRATCLESTKFRIYNNMFCAGFHEGGRDSCQGDSGGPHVTEVEGTSFLTGIISWGEECAMKGKYGIYTKVSRYVNWIKNKTKLT
notes: also called R150Y/R170E/T175R/E240N (chymotrypsin numbering)
B2: FIXa-R338E/T343R/R403E/E410N (enzyme)
chain 1: YNSGKLEEFVQGNLERECMEEKCSFEEAREVFENTERTTEFWKQYVDGDQCESNPCLNGGSCKDDINSYECWCPFGFEGKNCELDVTCNIKNGRCEQFCKNSADNKVVCSCTEGYRLAENQKSCEPAVPFPCGRVSVSQTSKLTR
chain 2: VVGGEDAKPGQFPWQVVLNGKVDAFCGGSIVNEKWIVTAAHCVETGVKITVVAGEHNIEETEHTEQKRNVIRIIPHHNYNAAINKYNHDIALLELDEPLVLNSYVTPICIADKEYTNIFLKFGSGYVSGWGRVFHKGRSALVLQYLRVPLVDRATCLESTKFRIYNNMFCAGFHEGGRDSCQGDSGGPHVTEVEGTSFLTGIISWGEECAMKGKYGIYTKVSEYVNWIKNKTKLT
notes: also called R170E/T175R/R233E/E240N (chymotrypsin numbering)
B3: FIXa-K247N/N249S/R318Y/R338E/T343R (enzyme)
chain 1: YNSGKLEEFVQGNLERECMEEKCSFEEAREVFENTERTTEFWKQYVDGDQCESNPCLNGGSCKDDINSYECWCPFGFEGKNCELDVTCNIKNGRCEQFCKNSADNKVVCSCTEGYRLAENQKSCEPAVPFPCGRVSVSQTSKLTR
chain 2: VVGGEDAKPGQFPWQVVLNGKVDAFCGGSIVNEKWIVTAAHCVETGVKITVVAGEHNIEETEHTEQNRSVIRIIPHHNYNAAINKYNHDIALLELDEPLVLNSYVTPICIADKEYTNIFLKFGSGYVSGWGRVFHKGYSALVLQYLRVPLVDRATCLESTKFRIYNNMFCAGFHEGGRDSCQGDSGGPHVTEVEGTSFLTGIISWGEECAMKGKYGIYTKVSRYVNWIKEKTKLT
notes: also called K82N/N84S/R150Y/R170E/T175R (chymotrypsin numbering)
B4: FIXa-R338E/T343R/R403E (enzyme)
chain 1: YNSGKLEEFVQGNLERECMEEKCSFEEAREVFENTERTTEFWKQYVDGDQCESNPCLNGGSCKDDINSYECWCPFGFEGKNCELDVTCNIKNGRCEQFCKNSADNKVVCSCTEGYRLAENQKSCEPAVPFPCGRVSVSQTSKLTR
chain 2: VVGGEDAKPGQFPWQVVLNGKVDAFCGGSIVNEKWIVTAAHCVETGVKITVVAGEHNIEETEHTEQKRNVIRIIPHHNYNAAINKYNHDIALLELDEPLVLNSYVTPICIADKEYTNIFLKFGSGYVSGWGRVFHKGRSALVLQYLRVPLVDRATCLESTKFRIYNNMFCAGFHEGGRDSCQGDSGGPHVTEVEGTSFLTGIISWGEECAMKGKYGIYTKVSEYVNWIKEKTKLT
notes: also called R170E/T175R/R233E (chymotrypsin numbering)
B5: FIXa-R318Y/R338E/T343R (enzyme)
chain 1: YNSGKLEEFVQGNLERECMEEKCSFEEAREVFENTERTTEFWKQYVDGDQCESNPCLNGGSCKDDINSYECWCPFGFEGKNCELDVTCNIKNGRCEQFCKNSADNKVVCSCTEGYRLAENQKSCEPAVPFPCGRVSVSQTSKLTR
chain 2: VVGGEDAKPGQFPWQVVLNGKVDAFCGGSIVNEKWIVTAAHCVETGVKITVVAGEHNIEETEHTEQKRNVIRIIPHHNYNAAINKYNHDIALLELDEPLVLNSYVTPICIADKEYTNIFLKFGSGYVSGWGRVFHKGYSALVLQYLRVPLVDRATCLESTKFRIYNNMFCAGFHEGGRDSCQGDSGGPHVTEVEGTSFLTGIISWGEECAMKGKYGIYTKVSRYVNWIKEKTKLT
notes: also called R150Y/R170E/T175R (chymotrypsin numbering); CB2679d

biological target: T1, Factor VIIIa (recombinant FVIII, Kogenate FS, activated with alpha-thrombin) (UniProt P00451 20-2351); experiment: functional cofactor affinity KD-app: fluorogenic FX activation (Xase) assay, FVIIIa titrated, PC/PS vesicles, saturating FX
T1 construct: also called FVIIIa
T1 sequence (looked up): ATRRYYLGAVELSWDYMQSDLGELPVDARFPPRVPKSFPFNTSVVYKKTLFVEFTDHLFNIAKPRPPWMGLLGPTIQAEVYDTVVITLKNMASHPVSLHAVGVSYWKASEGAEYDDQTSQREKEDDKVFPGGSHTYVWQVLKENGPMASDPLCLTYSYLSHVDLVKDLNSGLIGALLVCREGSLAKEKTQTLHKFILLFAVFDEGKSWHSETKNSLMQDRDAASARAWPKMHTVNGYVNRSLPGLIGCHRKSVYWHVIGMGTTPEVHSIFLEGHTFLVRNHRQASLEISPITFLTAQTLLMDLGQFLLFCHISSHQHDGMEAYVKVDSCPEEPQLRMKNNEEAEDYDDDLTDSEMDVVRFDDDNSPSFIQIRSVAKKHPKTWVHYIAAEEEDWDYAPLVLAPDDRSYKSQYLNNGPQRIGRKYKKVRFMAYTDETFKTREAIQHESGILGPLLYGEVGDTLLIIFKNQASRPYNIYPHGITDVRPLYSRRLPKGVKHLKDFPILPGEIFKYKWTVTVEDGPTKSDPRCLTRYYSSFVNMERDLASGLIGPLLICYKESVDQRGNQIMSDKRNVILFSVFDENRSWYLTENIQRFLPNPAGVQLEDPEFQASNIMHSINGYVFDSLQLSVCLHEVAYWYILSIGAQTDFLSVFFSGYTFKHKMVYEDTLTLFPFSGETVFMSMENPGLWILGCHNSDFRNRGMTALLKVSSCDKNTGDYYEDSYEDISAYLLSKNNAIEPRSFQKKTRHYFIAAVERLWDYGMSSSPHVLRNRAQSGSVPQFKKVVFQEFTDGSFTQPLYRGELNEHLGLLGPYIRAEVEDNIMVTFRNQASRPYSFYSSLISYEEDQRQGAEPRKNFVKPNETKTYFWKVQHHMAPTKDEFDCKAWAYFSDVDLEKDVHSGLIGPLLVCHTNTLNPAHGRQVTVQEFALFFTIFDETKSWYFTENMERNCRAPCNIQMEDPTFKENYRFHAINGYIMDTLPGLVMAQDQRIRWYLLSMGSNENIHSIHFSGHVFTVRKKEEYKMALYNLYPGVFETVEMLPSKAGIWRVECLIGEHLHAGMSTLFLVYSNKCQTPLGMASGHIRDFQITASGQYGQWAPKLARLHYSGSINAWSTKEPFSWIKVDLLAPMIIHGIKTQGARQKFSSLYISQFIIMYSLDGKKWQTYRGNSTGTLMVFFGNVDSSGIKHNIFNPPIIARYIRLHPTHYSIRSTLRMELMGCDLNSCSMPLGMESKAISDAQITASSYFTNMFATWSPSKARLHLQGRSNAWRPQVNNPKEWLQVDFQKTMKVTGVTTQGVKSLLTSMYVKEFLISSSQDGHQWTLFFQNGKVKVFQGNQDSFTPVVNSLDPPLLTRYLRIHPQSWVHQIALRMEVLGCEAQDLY

| Binder | Kd |
| --- | --- |
| B1 | 6.1 nM |
| B2 | 29.4 nM |
| B3 | 14.7 nM |
| B4 | 55 nM |
| B5 | 9.8 nM |
